These results are taken from US10920254B2, “Methods and materials for producing 5 and 7-carbon monomers” (INVISTA North America S.á.r.l., priority 2015, dated 2021).

The assay can be described thus: carboxylate reductase enzyme activity assay (N7-acetyl-7-aminoheptanoate to N7-acetyl-7-aminoheptanal), NADPH consumption at 340 nm. In kind it is biochemical. As to conditions: purified enzyme enhanced by gene product of sfp; 2 mM N7-acetyl-7-aminoheptanoate, 1 mM ATP, 1 mM NADPH, pH 7.5, room temperature, 20 min; FIG. 10. As to the method:
The activity of each of the N-terminal His-tagged carboxylate reductases of SEQ ID NOs: 3, 5, and 6 (see Examples 2 and 3, and FIG. 6B, FIGS. 6D-6E) for converting N7-acetyl-7-aminoheptanoate to N7-acetyl-7-aminoheptanal was assayed in triplicate in a buffer composed of a final concentration of 50 mM HEPES buffer (pH=7.5), 2 mM N7-acetyl-7-aminoheptanoate, 10 mM MgCl2, 1 mM ATP, and 1 mM NADPH. The assays were initiated by adding purified carboxylate reductase and phosphopantetheine transferase or the empty vector control to the assay buffer containing the N7-acetyl-7-aminoheptanoate then incubated at room temperature for 20 min. The consumption of NADPH was monitored by absorbance at 340 nm.

B1: SEQ ID NO: 5: Mycobacterium massiliense carboxylate reductase, N-terminal HIS tagged (protein, listed as Mycobacterium abscessus)
chain: MTNETNPQQEQLSRRIESLRESDPQFRAAQPDPAVAEQVLRPGLHLSEAIAALMTGYAERPALGERARELVIDQDGRTTLRLLPRFDTTTYGELWSRTTSVAAAWHHDATHPVKAGDLVATLGFTSIDYTVLDLAIMILGGVAVPLQTSAPASQWTTILAEAEPNTLAVSIELIGAAMESVRATPSIKQVVVFDYTPEVDDQREAFEAASTQLAGTGIALETLDAVIARGAALPAAPLYAPSAGDDPLALLIYTSGSTGAPKGAMHSENIVRRWWIREDVMAGTENLPMIGLNFMPMSHIMGRGTLTSTLSTGGTGYFAASSDMSTLFEDMELIRPTALALVPRVCDMVFQRFQTEVDRRLASGDTASAEAVAAEVKADIRDNLFGGRVSAVMVGSAPLSEELGEFIESCFELNLTDGYGSTEAGMVFRDGIVQRPPVIDYKLVDVPELGYFSTDKPHPRGELLLKTDGMFLGYYKRPEVTASVFDADGFYMTGDIVAELAHDNIEIIDRRNNVLKLSQGEFVAVATLEAEYANSPVVHQIYVYGSSERSYLLAVVVPTPEAVAAAKGDAAALKTTIADSLQDIAKEIQLQSYEVPRDFIIEPQPFTQGNGLLTGIAKLARPNLKAHYGPRLEQMYAEIAEQQAAELRALHGVDPDKPALETVLKAAQALLGVSSAELAADAHFTDLGGDSLSALSFSDLLRDIFAVEVPVGVIVSAANDLGGVAKFVDEQRHSGGTRPTAETVHGAGHTEIRAADLTLDKFIDEATLHAAPSLPKAAGIPHTVLLTGSNGYLGHYLALEWLERLDKTDGKLIVIVRGKNAEAAYGRLEEAFDTGDTELLAHFRSLADKHLEVLAGDIGDPNLGLDADTWQRLADTVDVIVHPAALVNHVLPYNQLFGPNVVGTAEIIKLAITTKIKPVTYLSTVAVAAYVDPTTFDEESDIRLISAVRPIDDGYANGYGNAKWAGEVLLREAHDLCGLPVAVFRSDMILAHSRYTGQLNVPDQFTRLILSLIATGIAPGSFYQAQTTGERPLAHYDGLPGDFTAEAITTLGTQVPEGSEGFVTYDCVNPHADGISLDNFVDWLIEAGYPIARIDNYTEWFTRFDTAIRGLSEKQKQHSLLPLLHAFEQPSAAENHGVVPAKRFQHAVQAAGIGPVGQDGTTDIPHLSRRLIVKYAKDLEQLGLL
modifications: N-terminal His tag; Mycobacterium abscessus subsp. bolletii
notes: Mycobacterium massiliense carboxylate reductase, N-terminal HIS tagged
Take B1: the “acceptance of N7-acetyl-7-aminoheptanoate as substrate (NADPH consumption), confirmed against the empty vector control” value is on record as “accepted N7-acetyl-7-aminoheptanoate as substrate”.

B2: SEQ ID NO: 3: Mycobacterium smegmatis carboxylate reductase, N-terminal HIS tagged (protein, listed as Mycobacterium smegmatis)
chain: MTSDVHDATDGVTETALDDEQSTRRIAELYATDPEFAAAAPLPAVVDAAHKPGLRLAEILQTLFTGYGDRPALGYRARELATDEGGRTVTRLLPRFDTLTYAQVWSRVQAVAAALRHNFAQPIYPGDAVATIGFASPDYLTLDLVCAYLGLVSVPLQHNAPVSRLAPILAEVEPRILTVSAEYLDLAVESVRDVNSVSQLVVFDHHPEVDDHRDALARAREQLAGKGIAVTTLDAIADEGAGLPAEPIYTADHDQRLAMILYTSGSTGAPKGAMYTEAMVARLWTMSFITGDPTPVINVNFMPLNHLGGRIPISTAVQNGGTSYFVPESDMSTLFEDLALVRPTELGLVPRVADMLYQHHLATVDRLVTQGADELTAEKQAGAELREQVLGGRVITGFVSTAPLAAEMRAFLDITLGAHIVDGYGLTETGAVTRDGVIVRPPVIDYKLIDVPELGYFSTDKPYPRGELLVRSQTLTPGYYKRPEVTASVFDRDGYYHTGDVMAETAPDHLVYVDRRNNVLKLAQGEFVAVANLEAVFSGAALVRQIFVYGNSERSFLLAVVVPTPEALEQYDPAALKAALADSLQRTARDAELQSYEVPADFIVETEPFSAANGLLSGVGKLLRPNLKDRYGQRLEQMYADIAATQANQLRELRRAAATQPVIDTLTQAAATILGTGSEVASDAHFTDLGGDSLSALTLSNLLSDFFGFEVPVGTIVNPATNLAQLAQHIEAQRTAGDRRPSFTTVHGADATEIRASELTLDKFIDAETLRAAPGLPKVTTEPRTVLLSGANGWLGRFLTLQWLERLAPVGGTLITIVRGRDDAAARARLTQAYDTDPELSRRFAELADRHLRVVAGDIGDPNLGLTPEIWHRLAAEVDLVVHPAALVNHVLPYRQLFGPNVVGTAEVIKLALTERIKPVTYLSTVSVAMGIPDFEEDGDIRTVSPVRPLDGGYANGYGNSKWAGEVLLREAHDLCGLPVATFRSDMILAHPRYRGQVNVPDMFTRLLLSLLITGVAPRSFYIGDGERPRAHYPGLTVDFVAEAVTTLGAQQREGYVSYDVMNPHDDGISLDVFVDWLIRAGHPIDRVDDYDDWVRRFETALTALPEKRRAQTVLPLLHAFRAPQAPLRGAPEPTEVFHAAVRTAKVGPGDIPHLDEALIDKYIRDLREFGLI
modifications: N-terminal His tag
notes: Mycobacterium smegmatis carboxylate reductase, N-terminal HIS tagged
Turning to B2, the “acceptance of N7-acetyl-7-aminoheptanoate as substrate (NADPH consumption), confirmed against the empty vector control” value is on record as “accepted N7-acetyl-7-aminoheptanoate as substrate”.
